This note sets out measurements from patent US20080268487.

Series [1] concerns T1, GST-Rab10 (human Rab10).
T1 sequence: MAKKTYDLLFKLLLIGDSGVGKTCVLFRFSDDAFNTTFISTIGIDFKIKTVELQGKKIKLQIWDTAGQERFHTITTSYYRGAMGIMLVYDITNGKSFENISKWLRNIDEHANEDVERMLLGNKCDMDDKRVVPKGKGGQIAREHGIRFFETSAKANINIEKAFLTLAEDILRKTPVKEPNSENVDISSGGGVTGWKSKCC

Series [2] concerns GST-Rab2A [GST: P08515].
The next series deals with GST-Rab8A (dog Rab8A) (UniProt P61007).
The test system of series [3] is GST-Rab8B [GST: P08515].
The target in series [4] is T2, GST-Rab10 (human Rab10).
T2 chain: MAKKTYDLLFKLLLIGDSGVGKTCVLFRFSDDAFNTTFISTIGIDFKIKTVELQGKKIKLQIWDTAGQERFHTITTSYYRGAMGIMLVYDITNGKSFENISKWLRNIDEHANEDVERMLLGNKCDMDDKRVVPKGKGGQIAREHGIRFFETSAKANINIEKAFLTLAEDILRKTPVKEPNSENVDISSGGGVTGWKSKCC

For series [5], the target named is GST-Rab14 (mouse Rab14), Q91V41.
Sequence of GST-Rab14 (mouse Rab14), Q91V41 (Q91V41 whole entry, looked up): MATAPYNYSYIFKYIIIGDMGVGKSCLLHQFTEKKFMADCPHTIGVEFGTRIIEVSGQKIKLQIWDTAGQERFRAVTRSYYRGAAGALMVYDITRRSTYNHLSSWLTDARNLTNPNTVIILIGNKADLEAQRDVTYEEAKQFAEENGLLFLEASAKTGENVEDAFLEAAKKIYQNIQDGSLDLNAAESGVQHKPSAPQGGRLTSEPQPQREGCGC
For series [6], the target named is GST-Rab2A [GST: P08515]. The source holds these as a separate data set.
Series [7] concerns the target T3, GST-Rab8A (dog Rab8A), P61007.
T3 chain: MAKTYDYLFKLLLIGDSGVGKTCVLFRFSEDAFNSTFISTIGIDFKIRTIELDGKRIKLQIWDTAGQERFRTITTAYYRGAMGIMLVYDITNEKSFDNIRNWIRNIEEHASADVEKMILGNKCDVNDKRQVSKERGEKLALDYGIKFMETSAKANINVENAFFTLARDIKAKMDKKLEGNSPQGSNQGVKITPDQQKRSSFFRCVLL

Series [8] deals with GST-Rab8B [GST: P08515]. This is another data set of the same source.

Like-named read-outs stand apart in the source and are kept apart here.

As for “GST-GAP Arg/Lys (GST-GAP domain with Arg973 mutated to Lys)”, the “hydrolysis of Rab-bound [α^32P]GTP to GDP (thin layer chromatography)” value (shortened to “hydrolysis of Rab-bound [α^32P]GTP”) was “For each of Rab 2A, 8A, 8B, 10, and 14, the GAP Arg/Lys construct exhibited no significant activity” with GST-Rab10 (human Rab10) [1]; “For each of Rab 2A, 8A, 8B, 10, and 14, the GAP Arg/Lys construct exhibited no significant activity” with GST-Rab2A [GST: P08515] [2]; “For each of Rab 2A, 8A, 8B, 10, and 14, the GAP Arg/Lys construct exhibited no significant activity” with GST-Rab8A (dog Rab8A); “For each of Rab 2A, 8A, 8B, 10, and 14, the GAP Arg/Lys construct exhibited no significant activity” in the series on GST-Rab8B [GST: P08515] [3].

B1: AS160 GAP domain-GST fusion protein (protein)
chain: GASRDELQSRKVKLDYEEVGACQKEVLITWDKKLLNCRAKIRCDMEDIHTLLKEGVPKSRRGEIWQFLALQYRLRHRLPNKQQPPDISYKELLKQLTAQQHAILVDLGRTFPTHPYFSVQLGPGQLSLFNLLKAYSLLDKEVGYCQGISFVAGVLLLHMSEEQAFEMLKFLMYDLGFRKQYRPDMMSLQIQMYQLSRLLHDYHRDLYNHLEENEISPSLYAAPWFLTLFASQFSLGFVARVFDIIFLQGTEVIFKVALSLLSSQETLIMECESFENIVEFLKNTLPDMNTSEMEKIITQVFEMDISKQLHAYEVEYHVLQDELQESSYSCEDSETLEKLERANSQLKRQNMDLLEKLQVAHTKIQALESNLENLLTRETKMKSLIRTLEQEKMAYQKTVEQLRKLLPADALANCDLLLRDLNCNPNNKAKIGNKP
Regarding B1, the “hydrolysis of Rab-bound [α^32P]GTP” value in the series with GST-Rab10 (human Rab10) [4] was “the GAP domain markedly stimulated the hydrolysis of [α^32P]GTP bound to Rabs 2A, 8A, 8B, 10, and 14”. Also, in series [5], the “GAP activity in the presence of a 10-fold molar excess of GST as carrier protein” value was “the presence of excess GST did not inhibit the GAP activity”; the “GAP assay with GST-GAP domain attached to glutathione beads” value is reported as “the same molar amount of the GST-GAP domain attached to glutathione beads showed the expected activity against Rab14”; the “hydrolysis of Rab-bound [α^32P]GTP” value was “the GAP domain markedly stimulated the hydrolysis of [α^32P]GTP bound to Rabs 2A, 8A, 8B, 10, and 14”; the kcat/Km entry is listed as “a kcat/Km value of 0.2 min^-1 µmolar^-1”. Moreover, the “rate of hydrolysis of the bound [α^32P]GTP with 130 nM GST-GAP domain” value in series [5] is on record as “approximately 3% per minute with 130 nM GST-GAP domain”. In addition, the “hydrolysis of Rab-bound [α^32P]GTP” value with GST-Rab2A [GST: P08515] [6] was “the GAP domain markedly stimulated the hydrolysis of [α^32P]GTP bound to Rabs 2A, 8A, 8B, 10, and 14”. For the same molecule, in series [7], the “hydrolysis of Rab-bound [α^32P]GTP” value is “the GAP domain markedly stimulated the hydrolysis of [α^32P]GTP bound to Rabs 2A, 8A, 8B, 10, and 14”. For the same molecule, the “hydrolysis of Rab-bound [α^32P]GTP” value in the series with GST-Rab8B [GST: P08515] [8] is “the GAP domain markedly stimulated the hydrolysis of [α^32P]GTP bound to Rabs 2A, 8A, 8B, 10, and 14”.

B2: recombinant GAP domain without GST (protein)
chain: GASRDELQSRKVKLDYEEVGACQKEVLITWDKKLLNCRAKIRCDMEDIHTLLKEGVPKSRRGEIWQFLALQYRLRHRLPNKQQPPDISYKELLKQLTAQQHAILVDLGRTFPTHPYFSVQLGPGQLSLFNLLKAYSLLDKEVGYCQGISFVAGVLLLHMSEEQAFEMLKFLMYDLGFRKQYRPDMMSLQIQMYQLSRLLHDYHRDLYNHLEENEISPSLYAAPWFLTLFASQFSLGFVARVFDIIFLQGTEVIFKVALSLLSSQETLIMECESFENIVEFLKNTLPDMNTSEMEKIITQVFEMDISKQLHAYEVEYHVLQDELQESSYSCEDSETLEKLERANSQLKRQNMDLLEKLQVAHTKIQALESNLENLLTRETKMKSLIRTLEQEKMAYQKTVEQLRKLLPADALANCDLLLRDLNCNPNNKAKIGNKP
On to B2, for which the “GAP activity compared with that of GST-GAP domain” value in series [5] is “no difference was observed”.

B3: recombinant full-length FLAG-tagged AS160 (protein)
chain: MEPPSCIQDEPFPHPLEPEPGVSAQPGPGKPSDKRFRLWYVGGSCLDHRTTLPMLPWLMAEIRRRSQKPEAGGCGAPAAREVILVLSAPFLRCVPAPGAGASGGTSPSATQPNPAVFIFEHKAQHISRFIHNSHDLTYFAYLIKAQPDDPESQMACHVFRATDPSQVPDVISSIRQLSKAAMKEDAKPSKDNEDAFYNSQKFEVLYCGKVTVTHKKAPSSLIDDCMEKFSLHEQQRLKIQGEQRGPDPGEDLADLEVVVPGSPGDCLPEEADGTDTHLGLPAGASQPALTSSRVCFPERILEDSGFDEQQEFRSRCSSVTGVQRRVHEGSQKSQPRRRHASAPSHVQPSDSEKNRTMLFQVGRFEINLISPDTKSVVLEKNFKDISSCSQGIKHVDHFGFICRESPEPGLSQYICYVFQCASESLVDEVMLTLKQAFSTAAALQSAKTQIKLCEACPMHSLHKLCERIEGLYPPRAKLVIQRHLSSLTDNEQADIFERVQKMKPVSDQEENELVILHLRQLCEAKQKTHVHIGEGPSTISNSTIPENATSSGRFKLDILKNKAKRSLTSSLENIFSRGANRMRGRLGSVDSFERSNSLASEKDYSPGDSPPGTPPASPPSSAWQTFPEEDSDSPQFRRRAHTFSHPPSSTKRKLNLQDGRAQGVRSPLLRQSSSEQCSNLSSVRRMYKESNSSSSLPSLHTSFSAPSFTAPSFLKSFYQNSGRLSPQYENEIRQDTASESSDGEGRKRTSSTCSNESLSVGGTSVTPRRISWRQRIFLRVASPMNKSPSAMQQQDGLDRNELLPLSPLSPTMEEEPLVIFLSGEDDPEKIEERKKSKELRSLWRKAIHQQILLLRMEKENQKLEGASRDELQSRKVKLDYEEVGACQKEVLITWDKKLLNCRAKIRCDMEDIHTLLKEGVPKSRRGEIWQFLALQYRLRHRLPNKQQPPDISYKELLKQLTAQQHAILVDLGRTFPTHPYFSVQLGPGQLSLFNLLKAYSLLDKEVGYCQGISFVAGVLLLHMSEEQAFEMLKFLMYDLGFRKQYRPDMMSLQIQMYQLSRLLHDYHRDLYNHLEENEISPSLYAAPWFLTLFASQFSLGFVARVFDIIFLQGTEVIFKVALSLLSSQETLIMECESFENIVEFLKNTLPDMNTSEMEKIITQVFEMDISKQLHAYEVEYHVLQDELQESSYSCEDSETLEKLERANSQLKRQNMDLLEKLQVAHTKIQALESNLENLLTRETKMKSLIRTLEQEKMAYQKTVEQLRKLLPADALANCDLLLRDLNCNPNNKAKIGNKP
With B3, the “GAP assay with protein attached to anti-FLAG beads” value in series [5] was “The full-length AS160 exhibited no significant activity above that of the Arg973Lys mutant with Rabs 2A, 8A, and 14 as substrates”; with GST-Rab2A [GST: P08515] [6], “The full-length AS160 exhibited no significant activity above that of the Arg973Lys mutant with Rabs 2A, 8A, and 14 as substrates”; in series [7], “The full-length AS160 exhibited no significant activity above that of the Arg973Lys mutant with Rabs 2A, 8A, and 14 as substrates”.
